Assay results as given in patent publication US20260209355A1 (BIOND BIOLOGICS, published 2026).

T1: c-Myc conjugated and biotinylated human CD28 stalk region dimeric peptide (wild-type) (human, C-terminal biotin; Cysteine at position 141 (CD28 numbering) forms the disulfide linkage of the dimer)
T1 construct: the Methods describe only this biotinylated dimeric peptide design, so it is used here; also called Biotin conjugated CD28 stalk region dimeric peptide; WT peptide
T1 peptide: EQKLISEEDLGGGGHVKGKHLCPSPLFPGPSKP

T2: L145K mutated biotinylated and Myc tagged human CD28 stalk region dimeric peptide (human, C-terminal biotin; Cysteine at position 141 (CD28 numbering) forms the disulfide linkage of the dimer)
T2 construct: also called L145K CD28 stalk region dimeric peptide; mutant peptide
T2 peptide: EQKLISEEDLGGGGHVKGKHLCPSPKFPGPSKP


What was measured:
[1] = target: T3, membranal human CD28 (human, UniProt P10747 19-220); assay: FACS, FITC conjugated VHH on HEK cells overexpressing CD28
T3 construct: also called mCD28; HEK cells overexpressing human CD28

[2] = target: T1, c-Myc conjugated and biotinylated human …; assay: phage library screen by ELISA and flow cytometry against recombinant CD28 extracellular domain and the dimeric stalk region peptide
[3] = target: T2, L145K mutated biotinylated and Myc …; assay: direct ELISA, peptide on neutravidin plate, anti His tag-HRP
Protocol: (§1) Biotin conjugated wild-type or L145K CD28 stalk region dimeric peptides were immobilized on neutravidin coated ELISA maxi-sorb plates. A dilution series of VHH clones (0.2-5 μg/mL) and an irrelevant VHH clone (top left chart) was performed and detection of bound VHH was done with anti His tag-HRP conjugated antibody and development was done with TMB.

[4] = target: T1, c-Myc conjugated and biotinylated human …; assay: direct ELISA, WT stalk dimeric peptide on neutravidin plate, VHH 0.2-5 µg/mL
Protocol: as §1

Binder | binding result [1] | binding result [2] | binding result [3] | binding result [4]
VHH clone 2A1 (VHH, FITC conjugated in the FACS assay of FIG. 6, Produced recombinantly in CHO cells; from a naive llama VHH phage library; The printed text reads 'EVOLVESGGG' (probably Q); also called VHH #2A1) VHH: EVQLVESGGGLVQAGESLRLSCAASGSIASINAMGWYRQAPGSQRELVAAISGGGDTYYADSVKGRFTISRDNAKTTVYLQMNSLRPEDTAVYYCVVDLYGSDYWDWGQGTQVTVSS | binds | binds | no binding (tested: 0.2-5 µg/mL) | –
VHH clone 4A1 (VHH, Produced recombinantly in CHO cells) VHH: QVQLVESGGGLVQAGGSLRLSCAASGSIFSINAMGWYRQAPGKQRERVAAITSGGSTNYADSVKGRFTISRDNAKNTVYLQMNNLEPRDAGVYYCVVDLYGEDYWIWGQGTQVTVSS | – | – | no binding (tested: 0.2-5 µg/mL) | binds
VHH clone 4A4 (VHH, Produced recombinantly in CHO cells) VHH: EVQLVESGGGLVQAGGSLRLSCAASGSLFSINAMAWYRQAPGKQRELVAAITSSGSTNYANSVKGRFTVSRDNAKNTMYLQMNSLKPEDTAVYYCVVDEYGSDYWIWGQGTQVTVSS | – | – | no binding (tested: 0.2-5 µg/mL) | binds
